Test results taken from PMC3817407.
Values joined by “and” are separate entries in the source; they are usually repeats but may differ in a detail not shown here. Equal entries are not always repeated.

Assays:
[1] = biological target: T1, ECF02_2817
T1 chain: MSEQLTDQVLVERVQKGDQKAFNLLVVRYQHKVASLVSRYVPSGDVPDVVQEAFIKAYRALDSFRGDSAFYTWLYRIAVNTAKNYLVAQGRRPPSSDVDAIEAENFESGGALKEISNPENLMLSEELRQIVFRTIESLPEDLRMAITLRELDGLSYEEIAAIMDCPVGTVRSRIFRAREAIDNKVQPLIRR

[2] = biological target: T2, ECF03_1198
T2 chain: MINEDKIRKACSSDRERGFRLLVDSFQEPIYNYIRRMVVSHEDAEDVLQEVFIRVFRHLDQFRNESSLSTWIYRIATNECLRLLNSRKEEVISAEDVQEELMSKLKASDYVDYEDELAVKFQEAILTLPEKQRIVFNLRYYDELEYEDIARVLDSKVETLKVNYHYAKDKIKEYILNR

[3] = biological target: T3, ECF04_1609
T3 chain: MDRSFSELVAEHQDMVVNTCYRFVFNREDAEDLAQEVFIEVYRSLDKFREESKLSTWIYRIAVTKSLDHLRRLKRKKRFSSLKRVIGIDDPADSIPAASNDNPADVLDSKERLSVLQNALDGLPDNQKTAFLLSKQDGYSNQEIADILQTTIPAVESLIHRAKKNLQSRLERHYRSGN

[4] = biological target: T4, ECF11_987
T4 chain: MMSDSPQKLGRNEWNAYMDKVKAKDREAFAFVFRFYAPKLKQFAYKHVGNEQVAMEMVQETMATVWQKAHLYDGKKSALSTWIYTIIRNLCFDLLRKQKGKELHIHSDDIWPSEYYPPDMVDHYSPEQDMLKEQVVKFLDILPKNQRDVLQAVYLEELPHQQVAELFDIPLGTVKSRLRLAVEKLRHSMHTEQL

[5] = biological target: T5, ECF12_807
T5 chain: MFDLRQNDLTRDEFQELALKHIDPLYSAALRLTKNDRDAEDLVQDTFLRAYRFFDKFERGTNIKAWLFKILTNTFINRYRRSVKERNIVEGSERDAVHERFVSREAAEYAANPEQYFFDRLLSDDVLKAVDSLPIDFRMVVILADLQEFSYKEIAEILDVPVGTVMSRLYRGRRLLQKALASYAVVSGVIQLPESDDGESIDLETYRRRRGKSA

[6] = biological target: T6, ECF15_436
T6 chain: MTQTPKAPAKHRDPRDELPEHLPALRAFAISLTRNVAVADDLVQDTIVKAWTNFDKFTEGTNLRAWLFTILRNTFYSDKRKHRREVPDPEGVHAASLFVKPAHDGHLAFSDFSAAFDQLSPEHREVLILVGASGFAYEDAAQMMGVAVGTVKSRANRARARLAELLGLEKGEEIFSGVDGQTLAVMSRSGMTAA

[7] = biological target: T7, ECF16_3622
T7 chain: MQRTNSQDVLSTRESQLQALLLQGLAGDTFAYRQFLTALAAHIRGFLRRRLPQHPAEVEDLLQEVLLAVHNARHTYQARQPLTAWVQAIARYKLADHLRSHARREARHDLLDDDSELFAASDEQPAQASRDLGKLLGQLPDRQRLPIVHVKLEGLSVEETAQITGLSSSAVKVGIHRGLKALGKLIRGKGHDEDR

[8] = biological target: T8, ECF16_973
T8 chain: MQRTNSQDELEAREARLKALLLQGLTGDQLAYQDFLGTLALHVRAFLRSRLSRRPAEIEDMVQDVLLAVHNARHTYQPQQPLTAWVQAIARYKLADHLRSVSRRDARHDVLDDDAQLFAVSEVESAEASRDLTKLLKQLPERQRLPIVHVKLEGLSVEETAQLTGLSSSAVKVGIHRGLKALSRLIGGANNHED

[9] = biological target: T9, ECF17_1691
T9 chain: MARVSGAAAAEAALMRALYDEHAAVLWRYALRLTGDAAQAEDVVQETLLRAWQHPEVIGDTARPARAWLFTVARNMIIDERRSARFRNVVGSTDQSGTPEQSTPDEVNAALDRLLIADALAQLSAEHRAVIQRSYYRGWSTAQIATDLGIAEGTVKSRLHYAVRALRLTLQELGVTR

[10] = biological target: T10, ECF22_1147
T10 chain: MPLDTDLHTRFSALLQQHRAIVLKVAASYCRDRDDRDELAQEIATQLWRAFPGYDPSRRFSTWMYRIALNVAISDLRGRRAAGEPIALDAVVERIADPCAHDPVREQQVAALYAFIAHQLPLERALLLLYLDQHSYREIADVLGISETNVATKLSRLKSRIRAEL

[11] = biological target: T11, ECF22_4450
T11 chain: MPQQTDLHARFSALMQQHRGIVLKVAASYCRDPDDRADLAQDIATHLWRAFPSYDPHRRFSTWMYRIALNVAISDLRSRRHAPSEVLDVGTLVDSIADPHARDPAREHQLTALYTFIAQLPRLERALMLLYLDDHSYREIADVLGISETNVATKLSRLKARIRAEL

[12] = biological target: T12, ECF25_1643
T12 chain: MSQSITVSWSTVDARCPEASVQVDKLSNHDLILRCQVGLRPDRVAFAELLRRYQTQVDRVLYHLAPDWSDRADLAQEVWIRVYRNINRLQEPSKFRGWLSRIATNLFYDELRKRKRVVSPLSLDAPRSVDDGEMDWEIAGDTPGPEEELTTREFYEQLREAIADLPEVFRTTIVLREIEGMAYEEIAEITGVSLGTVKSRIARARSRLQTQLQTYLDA

[13] = biological target: ECF26_4464
[14] = biological target: ECF27_1331
[15] = biological target: T13, ECF27_4265
T13 chain: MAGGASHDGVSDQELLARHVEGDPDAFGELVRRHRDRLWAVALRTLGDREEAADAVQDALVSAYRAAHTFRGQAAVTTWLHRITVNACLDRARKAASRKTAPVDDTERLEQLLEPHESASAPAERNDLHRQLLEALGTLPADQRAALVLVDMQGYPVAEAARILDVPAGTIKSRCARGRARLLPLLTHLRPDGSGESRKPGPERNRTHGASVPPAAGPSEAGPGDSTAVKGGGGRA

[16] = biological target: T14, ECF35_3582
T14 chain: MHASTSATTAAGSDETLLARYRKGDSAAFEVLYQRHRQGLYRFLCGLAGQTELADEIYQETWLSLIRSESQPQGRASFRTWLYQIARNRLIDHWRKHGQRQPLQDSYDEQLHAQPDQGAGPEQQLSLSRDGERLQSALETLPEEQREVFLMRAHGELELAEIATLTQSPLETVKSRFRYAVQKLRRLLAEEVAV

B1: AS25_1643_cl43 (protein)
chain: MTTDSNFNDPCRRQFSRDLPQKMARHTNEATGAMDMVKRDRFELLSAYLGGEVTAAERRQVEDWPANDVAVQRLYSRLLKLRQGIRTMPIPTAQQSPETTAEQVFAKVNRRSRLAWKLGGAAVAACVIGAVTNWLPGRQTGIPQLAQQPQEQPTQAVTTPDALPMIALNNPVIEIPKAAVASPTKFIQPQPQLGEIPPDIN
- fold repression [1]: 4.05
- fold repression [2]: 1.92
- fold repression [3]: 2.44
- fold repression [4]: 2.43
- fold repression [5]: 4.23
- fold repression [6]: 1.2
- fold repression [7]: 2.26
- fold repression [8]: 1.22
- fold repression [9]: 1.92
- fold repression [10]: 5.45
- fold repression [11]: 3.35
- fold repression [12]: 4.28 and 3.89
- fold repression [13]: 6.66
- fold repression [14]: 1.96
- fold repression [15]: 0.954
- fold repression [16]: 1.57

B2: AS27_1331 (protein)
chain: MSAADKDPDKHSADADPPLTVELLADLQAGLLDDATAARIRSRVRSDPQAQQILRALNRVRRDVAAMGADPAWGPAARPAVVDSISAALRSARPNSSPGAAHAARPHVHPVRMIAGAAGLCAVATAIGVGAVVDAPPPAPSAPTTAQHITVSKPAPVIPLSRPQVLDLLHHTPDYGPPGGPLGDPSRRTSCLSGLGYPASTPVLGAQPIDIDARPAVLLVIPADTPDKLAVFAVAPHCSAADTGLLASTVVPRA
- fold repression [1]: 2.82
- fold repression [2]: 3.98
- fold repression [3]: 5.65
- fold repression [4]: 5.69
- fold repression [5]: 2.07
- fold repression [6]: 4.26
- fold repression [7]: 6.93
- fold repression [8]: 5.57
- fold repression [9]: 2.09
- fold repression [10]: 2.2
- fold repression [11]: 5.86
- fold repression [12]: 2.81 and 2.4
- fold repression [13]: 3.61
- fold repression [14]: 3.32
- fold repression [15]: 5.34
- fold repression [16]: 5.79

B3: AS25_1645 (protein)
chain: MNESFSQRQTDGDRRRGGDLEMKKNHTSHQHHTDSETPMGHNFEQFQRLSAYFDGEATPAERKEIQHLLDTDPQVKQQYQQLRQLKQALQLLPIPTSISAQYLGQRVLARLRRSQLRTLSLWGSGAIAALFVAGVMGQMPRLNFDRFAKNDPDQQPTAALVETSPQGEEALVVALNRPVLQIPKLATTESP
- fold repression [1]: 9.88
- fold repression [2]: 7.37
- fold repression [3]: 6.4
- fold repression [4]: 8.87
- fold repression [5]: 9.09
- fold repression [6]: 8.62
- fold repression [7]: 6.9
- fold repression [8]: 5.41
- fold repression [9]: 4.24
- fold repression [10]: 7.04
- fold repression [11]: 9.86
- fold repression [12]: 19.5 and 19.2
- fold repression [13]: 15.3
- fold repression [14]: 11.2
- fold repression [15]: 24.5
- fold repression [16]: 2.98

B4: AS27_4265 (protein)
chain: MTGHPDVAEIADLAEGLLPTTRTTEVRQHLESCELCADVYASLTEIQGLLGTLPAPAPMPDDVAARIDAALAAEPPLGIADGTRVSRETSTPADRPAGHARPSSTGPGRKDRRRGGRRRIAVLGAVAAAAAIGIGSVVVSSLTEDSSSGNTAREQQTAIADTFSEGRLKDRVTNLVADGSAENGSRTPRSFGMESENGGETAENHVFKQPTVPECIRKGIGRDDAVIATEPGVYKGREALLVVLPDATNDTQVTAYIVETACVDQPAVGKAKILLEHSYARS
- fold repression [1]: 1.4
- fold repression [2]: 2.19
- fold repression [3]: 2.44
- fold repression [4]: 5.93
- fold repression [5]: 8.59
- fold repression [6]: 3.65
- fold repression [7]: 5.58
- fold repression [8]: 1.77
- fold repression [9]: 2.82
- fold repression [10]: 8.51
- fold repression [11]: 4.03
- fold repression [12]: 1.63 and 1.17
- fold repression [13]: 5.53
- fold repression [14]: 3.78
- fold repression [15]: 152
- fold repression [16]: 1.97

B5: AS30_35 (protein)
chain: MDKRLQQLREEYKNVQIPKELDIIVEKALQQEPKKKRIVMWPTSAAIAAAILFTALVNINPDAAQAMSKIPVIGKIVKAITFIEIKEEKDQSSIDVKTPALSGLSNKELENSINEKYLKESQQLYKEFIQSTSKNKKGHLSIYSDYETVTDTPDLLSIRRNIETTQASSYTQSRYITIDKKNDILLTLKSLFKDERYIKVISQNIKEQMKQQMKEDPNKIYWLTDEDAEPFKTILPDQTFYITEDHKLVISFDEYEVAPGYMGVTEFTIPTGVISNLLVGERYIR
- fold repression [1]: 1.56
- fold repression [2]: 1.96
- fold repression [3]: 2.43
- fold repression [4]: 2.11
- fold repression [5]: 3.12
- fold repression [6]: 1.98
- fold repression [7]: 1.39
- fold repression [8]: 1.73
- fold repression [9]: 1.6
- fold repression [10]: 2.12
- fold repression [11]: 2.21
- fold repression [12]: 1.46 and 1.19
- fold repression [13]: 2.19
- fold repression [14]: 2.39
- fold repression [15]: 1.44
- fold repression [16]: 6.57

B6: AS22_4450 (protein)
chain: MELDDMKHAWQTLEQRLDQQAAQTGQLLGVVHEETVRSSLRPLWVAQTAQLLCALALAIVSARSWIPHTDQPVAVIGGVLLQAWCMALAISAMVQLQLLTQFNVAGPLLRTQHALARLRRWRTRVAPWLGVAFWVLWIAVADALWRALTGQTLPTDWLVLNLLVGVAGGIGTWLGFRRLQRAQHPWLERIDRAHAGTGVIRAERMLEEIARFQRD
- fold repression [1]: 1.98
- fold repression [2]: 2.46
- fold repression [3]: 1.43
- fold repression [4]: 1.89
- fold repression [5]: 1.67
- fold repression [6]: 1.41
- fold repression [7]: 1.79
- fold repression [8]: 1.71
- fold repression [9]: 1.52
- fold repression [10]: 5.73
- fold repression [11]: 12.7
- fold repression [12]: 1.63 and 1.34
- fold repression [13]: 2.51
- fold repression [14]: 1.37
- fold repression [15]: 1.4
- fold repression [16]: 1.35
